From patent CN114395035A (JIANGSU MICKEE MEDICAL TECH CO LTD; INST OF MICROBIOLOGY OF …, dated 2022) come the findings set out here.

For this test, the target named is SARS-CoV-2 Prototype RBD蛋白 (野生型新型冠状病毒刺突蛋白受体结合域段RBD蛋白) (SARS-CoV-2, UniProt P0DTC2 319-541). Kind of test: SPR (Biacore 8K). For orientation: In SPR one partner is held on a chip, and binding of the other changes the refractive index at the surface.

B1: IMCAS-364抗体 (全抗IgG1) (antibody, V domains shown)
VH: QVQLQESGGGVVQPGRSLRLSCAASGFTFSRYGMHWVRQAPGKGLEWVAVIWYDGSNKYYADSVKGRFTISRDNSKNTLYLQMNSLRADDTAVYYCAKQEGTYCSGGSCYSGLDYWGQGTLVTVSS
VL: not shown
notes: also called 金标抗体 (胶体金标记)
The molecule B1 registered a dissociation constant Kd of 1.04 nM.

B2: IMCAS-123抗体 (全抗IgG1) (antibody, V domains shown)
VH: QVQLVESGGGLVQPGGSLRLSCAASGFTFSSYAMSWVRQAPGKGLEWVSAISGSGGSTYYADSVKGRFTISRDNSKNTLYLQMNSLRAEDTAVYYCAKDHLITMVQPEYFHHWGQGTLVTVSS
VL: DIQMTQSPSSVSASVGDSVTITCRASQGISRWLAWYQQRPGKAPKLLIYAAGNLETGVPSRFSGSGSGTDFTLTISDLQAEDFATYYCQQADSFPLTFGGGTKVDIKR
notes: also called T1线抗体
For the molecule B2, the affinity, expressed as Kd, was 0.18 nM.

As a reminder, the Kd is the free concentration of one partner at which half of the binding sites on the other are occupied at equilibrium, for simple one-to-one binding. A higher Kd goes with weaker binding.
